Measurements reported in PMC12839305 (2025).

Target: T1, RVFV glycoprotein Gn head domain (154–469 aa) (Rift Valley fever virus, UniProt P21401 154-469)
T1 chain: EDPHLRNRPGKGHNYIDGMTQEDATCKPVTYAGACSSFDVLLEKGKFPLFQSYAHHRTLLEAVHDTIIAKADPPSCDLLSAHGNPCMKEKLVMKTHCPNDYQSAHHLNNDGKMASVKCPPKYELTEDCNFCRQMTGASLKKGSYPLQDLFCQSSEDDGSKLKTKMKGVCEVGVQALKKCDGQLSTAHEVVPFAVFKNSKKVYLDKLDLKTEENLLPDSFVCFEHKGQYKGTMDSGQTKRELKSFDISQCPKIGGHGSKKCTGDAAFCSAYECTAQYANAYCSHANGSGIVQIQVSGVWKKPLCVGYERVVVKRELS
Assay: BLI

B1: LRP1 single complement-type repeat CR25 fused to human Fc (Fc fusion)
chain: not shown
- Kd: 67 nM
